Data reported in patent US20220073599A1 (Hoffmann-La Roche, published 2022).
Residue numbers refer to the chain shown, from its start. One block for each binder: values may come before it.

Key:
[1] = biological target: T1, human VEGFA-121-His (human, UniProt P15692 181-395); assay: KinExA equilibrium titration in solution, VEGFA-121
T1 construct: Prepared in-house; not shown: His tag
T1 sequence: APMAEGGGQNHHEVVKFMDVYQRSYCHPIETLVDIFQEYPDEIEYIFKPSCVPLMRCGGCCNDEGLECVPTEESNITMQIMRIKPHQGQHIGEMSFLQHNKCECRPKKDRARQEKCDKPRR

[2] = biological target: T2, human VEGFA-165 (human, UniProt P15692-4 27-191); assay: KinExA, VEGFA-165; set-up for VEGFA-165 not described
T2 construct: also called hVEGF-A165

[3] = biological target: T3, Mouse VEGF-A-121 (mouse, UniProt Q00731-3 27-146); assay: SPR crossreactivity set-up, VEGF-A121-His captured by anti-His antibody, Fab injected, single cycle kinetics
T3 construct: also called mouse VEGF-A121-His; not shown: His tag
T3 sequence (looked up): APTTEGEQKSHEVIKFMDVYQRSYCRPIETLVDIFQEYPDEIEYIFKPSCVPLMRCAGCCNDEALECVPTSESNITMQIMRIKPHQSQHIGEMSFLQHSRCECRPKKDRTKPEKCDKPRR
Experimental: (§1) An anti-His capturing antibody (GE Healthcare 28995056) was immobilized to a Series S Sensor Chip C1 (GE Healthcare BR100535) using standard amine coupling chemistry resulting in a surface density of approximately 600 resonance units (RU). As running and dilution buffer, HBS-P+ (10 mM HEPES, 150 mM NaCl pH 7.4, 0.05% Surfactant P20) was used. […] A dilution series of the tested antibody (3.7-300 nM, 1:3 dilution) was successively injected for 60 s each, dissociation was monitored for 3600 s at a flow rate of 30 μl/min (single cycle kinetics). The surface was regenerated by injecting 10 mM Glycine pH 1.5 for 60 s at a flow of 5 μl/min. […] Curve fitting was performed using the 1:1 Langmuir binding model within the Biacore® evaluation software.
(§2) Crossreactivity to VEGF-A and ANG2 from other species was assessed as described above in “Materials & general methods” section.

[4] = biological target: T1, human VEGFA-121-His; assay: as above
Experimental: as §1, §2

[5] = biological target: T1, human VEGFA-121-His; assay: SPR, VEGF-A121-His captured by anti-His antibody, Fab injected, single cycle kinetics; marked outside of Biacore specification; exponent as printed
Experimental: as §1
Binding kinetics to human VEGF-A and human ANG2 for the candidate antibodies were assessed as described above using the indicated Fab fragments (amino acid sequence as illustrated in Table 4).

[6] = biological target: T4, human Ang2-RBD (human, UniProt O15123 275-496, limits assumed); assay: SPR, Fab captured by anti-Fab antibody, Ang2-RBD injected, 25 C
T4 construct: also called Human ANG2 (SPR); Angiopoietin 2-RBD
T4 sequence: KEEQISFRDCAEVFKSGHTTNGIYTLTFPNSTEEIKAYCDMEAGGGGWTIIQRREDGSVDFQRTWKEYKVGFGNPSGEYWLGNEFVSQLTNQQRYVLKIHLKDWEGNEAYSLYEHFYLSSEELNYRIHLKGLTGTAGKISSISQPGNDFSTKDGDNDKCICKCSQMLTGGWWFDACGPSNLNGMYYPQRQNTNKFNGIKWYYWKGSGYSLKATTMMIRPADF
Experimental: An anti-Fab capturing antibody (GE Healthcare 28958325) was immobilized to a Series S Sensor Chip C1 (GE Healthcare BR100535) using standard amine coupling chemistry resulting in a surface density of approximately 800 resonance units (RU). As running and dilution buffer, HBS-P+ (10 mM HEPES, 150 mM NaCl pH 7.4, 0.05% Surfactant P20) was used, the temperature of measurement was 25° C. The tested antibody was captured by injecting a 50 nM solution for 60 sec at a flow of 5 μl/min. Association was measured by injection of human Ang2-RBD in various concentrations in solution for 180 sec at a flow of 30 μl/min (0.07 nM-50 nM, 1:3 dilution). The dissociation phase was monitored for up to 900 sec and triggered by switching from the sample solution to running buffer at a flow rate of 30 μl/min. The surface was regenerated by injection of 10 mM Glycine pH 2.1 for 60 s at a flow rate of 30 μl/min. Bulk refractive index differences were corrected by subtracting blank injections and by subtracting the response obtained from the reference flow cell without captured tested antibody. Curve fitting was performed using the 1:1 Langmuir binding model within the Biacore® evaluation software.

[7] = biological target: T1, human VEGFA-121-His; assay: SPR, VEGF-A121-His captured by anti-His antibody, Fab injected, single cycle kinetics
Experimental: as §1

[8] = biological target: T1, human VEGFA-121-His; assay: SPR, VEGF-A121-His captured by anti-His antibody, Fab injected, single cycle kinetics, 1:1 fit
Experimental: as §1

Kd [1]: ~0.004 nM
Kd [2]: ~0.002 nM
Kd [3]: 0.368 nM
koff [3]: 0.000183 s⁻¹
kon [3]: 497000 M⁻¹ s⁻¹
t1/2 [3]: 1.05 h
Kd [4]: 0.0455 nM
koff [4]: 2.21e-05 s⁻¹
kon [4]: 486000 M⁻¹ s⁻¹
t1/2 [4]: 8.72 h
koff [5]: 5.82e-06 s⁻¹
B1: bispecific anti-VEGF-A/anti-ANG2 Fab fragment P1AD9820 (Fab, V domains shown)
VH: SEHLVESGGGLVKPGGSLRLSCATADFFEYDDMSWVRQAPGKGLEWVGSISPKGDHKYLNTKFIGRFTISRDDSKNTLYLQMNSLRAEDTAVYYCARDVGFFDWWGQGTLVTVSS
VL: AIYMHQEPSSLSASVGDRVTITCHGSYWLNSEVAWYQQKPGKAPKLLIFDGDFKVYEVPSRFSGSGSHEDYTLTISSLQPEDFATYYCQQYRYHPYTFGHGTKVEIKR
notes: Bispecific Fab with two paratopes in one VH/VL pair; also called P1AD9820 Fab

t1/2 [6]: 24 s
t1/2 [7]: 42.5 h
kon [8]: 1.66e+06 M⁻¹ s⁻¹
B2: bispecific anti-VEGF-A/anti-ANG2 Fab fragment P1AA8906 (Fab, V domains shown)
VH: DFQLVESGGGLVKPGGSLRLSCAASYEFEYDDMSWVRQAPGKGLEWVGSISPKGGSTYYNTKFIGRFTISRDNSKNTLYLQMNSLRAEDTAVYYCARDVGFFDMWGQGTLVTVSS
VL: B1 VL with N30S, S31N, E32Y, V33L, G51A, D52R, F53W, K54L, Y56H, E57G
notes: Bispecific Fab with two paratopes in one VH/VL pair (DutaFab); CH1 and Ckappa
